Assay: soluble on expression in E. coli; label from the status in PepcDB or PDB records
With “MAHHHHHHMSTLRHSHEPSPYVQKGEDLSGQKLTPTIKSYRNMEFLNSYSGRMIRILCEFEEPKQRLQQHFIRTTVLFFGSARSMTQAQYDSTVQDIHSKLAAATDDSTKASLQNKLACLKKTQWMCKWVDVVENLARMVAEFSQKEQDMIIRSFRHIPDYFRLTPEDGSESLDDLQKRFHDLVVTTGGGPGFMEAANHGAESVPGAVTMGMGISLPFENGLNPHVTKGLAFEFHYFFTRKFWMMYSCRAIVIAPGGFGTLDEMFELLTLKQTKKIPSLPVVLLGKEFWQTVVNWQALANYGVISQEEIDSLLFTDSAEEAVEHIKDFYHRLASDSPSTE” the “soluble on expression in E. coli” value was “not soluble”. With “MAHHHHHHMSTNRVATVVAGLDGANPVKRERHPAWYPPLKLDGNGLKVMNSLTETLEDFAPRDGRVVRWYTCGPTVYDLSHMGHARAYLTFDIIRRIMEDYFGYSVIYQMNITDIDDKIIKRARVNKLLVDFKEEELRHSDVAKLMAFTAEAVAAAESGLAKRKAALVEPIAKGTNSRAKADREEKLLEVQLKESQLVETKVKIAAAKDDFAALFAAASGVNGDLLDERSGHSVSDQQIFEDHARKYERAFFEDMQRLGIREPDIVTRVTEYVPQVVEFVQKIIDNGFAYAGETSVFFDTEAYIRAGHDYPKLKPGGDRNTTEDEMAEGEGVLSKGIEGEKRSPNDFALWKFSKPGEPRWPSPWGEGRPGWHIECSVMASDILGENMDIHSGGWDLKFPHHDNECAQSEACNLHSQWVNYFLHCGHLHIKGLKMSKSLKNFITIRQALDELGVTARTMRLLFLANPWNKPMNFSDQSLDEAKEKERVLRAFFGSVDIVLRADNWKATQGVNKHDRELLSKWVEAEAAVHAALQDNFDTVVALQQLMSLVAATNQYLLSGERPSATLVRKVGCYVTKMFRIFGVVEGSDDVGLQKQGSDDGEARFIEVVNTLVRFRDEVRNAAKDHKVVAGFLPLCDKVRDEWLVDAGVRLEDNPAGPTTWKSDEPALLQKELAERRAQQEGDRQRRLANQAETKRKLVEKWRQFTYPPSEYFRRQDEQRVEKKYTAYDDVTGLPTMTAAGEEVSEKEAKKLSKEQAKYAKSYDEFIGKGGVSWIQEQEAELASMVAELEGSK” the “soluble on expression in E. coli” value was “not soluble”. With “MAHHHHHHMSVPDLTAEELAYYASLRLEDPDEAALATFLADLEQVHEDHPSDTGAAPSSTVASASGKRGALLTSSRVPACERLDSSDVEGVPPQRRVASVDRQQPSAYAATGLAIRQISAKLFPAPRSATTDSGTRYGVTQVLEKDNLVGGVAGIADAALQTRCVELPARQLTSIAPVQCFLNATHVYLQHNALADLEGVELLSQLQVLVVHHNQLTSLAPLQQLECLSYLDVSHNNVSSSVDVLLRDELPCPSLKSLNLSNNPCWSRCGEAVSDGDGGERHRAYVQQICTACPLLERLDDVVVDDGEEVMQHSDNSTESDVKDVAERRSASAAGAAPSQAGGITVRRVHNSVEAARAASSRACVHDIHTRSSLAPPGSLVSGEAELSARPPRSAQVNKARLLEEEQARLVHQLFLRRAVGTAPGSAKAVDTVSTSPLHSNRSSTGSGHFHPGDAATEAPTEQKANQPADSTGDVSALYSTRGDILHLYHSLQFTQEVSQARLQRDVAAHWDDVSRVLQTVQALQQDRRRRIQQRLQEQTSAYTDSLIMLEKESFTKDLDRYRNSDGSRRAAPAGIHAAASAPAAPPAVDTPNGITAVAHTSAAVDGNCASKASSTSTHPPEKPKGKTKKGPSVPKPPPRR” the “soluble on expression in E. coli” value was “not soluble”. In the case of “MAHHHHHHMSVPSLRRSDRSGDPTRDRVHYVRAQRQHLVRETRMLQMALEELQEEAERENTEEALMRRGIDTTHRELLRCLLHLALAEQDSTRGAAAASGAQAQYDETSAIICEVLRRYKHEQDAFTQEAKQRLESIREEARQACMNVGDTLAVPQGEHAHSSGVGSVVEATDCDSLRSALEALREMQAEVDEETEATLLSIGRTLFC”, the “soluble on expression in E. coli” value is reported as “not soluble”. In the case of “MAHHHHHHMSYYDKSDKIGYDDTDKELNEELEEMLARTPPHIQRHLQHRIHDGILQRMKEDTARRCWEFIKKYETCVNSVKPYDLTDCRPHRDALNDCAHEVNREQIYQKYRMMYLRGELLRLHESRLGQKMETMKVRAPDSIRGWKPDYAPKYAEMMSDIGLNLGPEAADERKLS”, the “soluble on expression in E. coli” value is reported as “not soluble”. For “MAHHHHHHMTADARTDDGGLRRAYTRSMPAVLRPLWLLEESMRDVQVQWEEIIEGVMVEDVSFSSVRAAVLHVERLASQLKAIKQELMPRLSHFSQKEEDSEQPFLRYCSCAAKPTVNGDNSICDLAQGEQTQAARLAARVWVWGVCVGTIMNDLELLSTSLSFAASTCLLEKFAEEVRLTEASTFFLGKDEGVASPLSDSDLLLACQLLYHLFTGDDAAAEMTCHRVLSLIDDCEERDDGKECRGCILSRLVRIAECVAAEDYGALQVLMKVDFFTGVDTLCSLPPLIIFFTQMMLDTVVHRQLVQGCFQNVWRPVINVDRPARDESPSVPSEAMMNSFCSSSRLSFTTKRRLMTCCAVFRESLPPRVPWPIPEDLMDRCFRMGL”, the “soluble on expression in E. coli” value was “not soluble”. In the case of “MAHHHHHHMTDMELVEALNATEVPIARAVFLMISAVQDADAGDNKTWSCCHPDRSPAASPGSTTGWRSLRESPSGPAVIEVCYNDGADSFLTVKWVPMDKTHLVMITQRSDRERSHQPLNTSFCIEDEPLASLVLGQQTGSGASAAAMWTAESLGSALHRLRCLLQSAIGNTGRGSEQNEKFSAAQDSDCGRELPSPRRRNLVILNSTAVDPPLLLPLPCLPKAVCYLREWSRVLPAPVTAKRISSPVVEVLVWVAA”, the “soluble on expression in E. coli” value is reported as “soluble”. In the case of “MAHHHHHHMTDVAEGHQSYANAFISEGDRTSAVRYLDLFLRLYEEYCDVAEVEANSRVLQAATVMQSNSHAPDLLSYVVSAAALGIGGTRALAPALASLPLKVLNLSECYLGDAGLRVLAETLSASSHSTGGLRVLELRGISASDGSSVALLVTALRSLQLLDVSSNRFGTRPPGFALLCAAMGYHPALREVHIADNMVSGCCESCVGAIAEWLVKASRACMLQHVDLRFNTLGLYRRGLYNTVVDGKEVQCTLYGFYPLVDALLLNNSIEVLEVGNNGFPPGVLDAIEAKLAVNKRTKKALQEYYTNHIDR”, the “soluble on expression in E. coli” value is reported as “not soluble”. In the case of “MAHHHHHHMTGADPDMLGSSAPNRPALMEPSVAPSPTSSPPATNAHANGSNSNGAGNVPLSQSTWRDSAAGSQPHGHGMPSTVRAADAPGVTEEKQAEGAFGADVHYNPATEHDFAVRGGLDGGAEGEHNSAKKIRLNNVSHFKNVPSRLNVQRQSTEADLVPCTYCGRKFLPGRVQKHEDCCIDRSKPLTARKGGALPARPSTGAATPRLAKPTPAAPAVESAATGKAKFCGGCGCKKSEPDQKFCTECGHKL”, the “soluble on expression in E. coli” value is reported as “soluble”. With “MAHHHHHHMTHTGAAAASGASASTLSSQSTAAVASDDAFSEQHQGQKQRNLLRCFALADLLGVSPTVVQQLANAAATPSSSLHHARNTSRASSHCSTESDPVIRAYQLEQILVAAVVKQLFDRCCDPDQSIQNGGSVDAGQPAASSVSTTARQPARKHQPSSLKAPPWSAALSEPRRACTSPQQPDGERLLPSVLSSPQGVARVDALHASFLPLLLVALLQRVSEGSGGDTQATDATVPRQTPDTNAAASNTSAAVFSLRQQRSFRTALHQLLPLYTPLLLQRRRAARAVVSSVVVALQEYPCSGHDDGESTTEEEESRKRIQRLVHQGLCCSEVKQWLHAARLLSDTLVACLSHVSPRASIAATAPPPAIRRRRGGRGRFDGGAVDTGDGRGVAECGRDAPPRWRVGGGGAASVRSLVVGIRYERFEWCRAARARRQHPCKCWGPNEPTRAVHHHHHCRGARACRGHVYRRRGDVRRHLAPRGWPFWRTAAAATVELCSCWWSHSADTTRCTDTLSR” the “soluble on expression in E. coli” value was “not soluble”. With “MAHHHHHHMTKTNGQNAARKLVRLRCRNRWADKGWKRAHTFSARKANPFGGSSHAKGIVLEKIGVGAKQPNSAIRKCVRVQLIKNDKKIIAFVPNDGCLHFIEENDEVLVSGFGRSGHAVGDIPGVRFKIVKVSNVGLYALYRQKKEKPRN” the “soluble on expression in E. coli” value was “not soluble”. With “MAHHHHHHMTPAGAGEIFLRHNPYRSEVISWYRKFLKASFSVPWETDEDALYVLEEARRLFRKNARINDIETIERKLREAEMRYEIGVHYRIPYPRAFHKTQGSLQESGVAYAADLDSMYDHPVSPRIGWIMEGSVNGGTMGGSEHLTQYLEDGPGVENDNLSEGR” the “soluble on expression in E. coli” value was “not soluble”. For “MAHHHHHHMVEAQRGYNCVWHSWPPPLQGVNKHFNSCAASPLPLQLLVGNRILLITKDPPLKVIKFFNEFQPEEYIKPGNICTQNVTLKFGDVLNVPVSMQKDLQKRKVTFDIVDQKIVIRKDKVLAEKDKLVSAENAKLLRMLNMKIANFDITVLGYWNVNKFVSLM”, the “soluble on expression in E. coli” value was “soluble”. In the case of “MAHHHHHHMVGAMHDIQVGFLDRCSVFQFTLTCTVLDFQKVAEPQPKSPGSLPSSTRTAPNPNGEEVEKHINKEQYTVRCLGSEAYTEALKNYLDDGCIVRVIGRLKTTEVVDAGKKQPFPCIIVEQGRWSTVSLVHSLRKQRRDWQLQNILTSVATLE”, the “soluble on expression in E. coli” value is reported as “not soluble”. With “MAHHHHHHMVMYDPAAPNNYRDVKVMWWKRAREDERKNDISRSLAAAAEAGSSPFDMPDMMRMAPRDELAYDILGGSGDTMSLHLSAEELHQRRVRQSAALGITTAMNLEREELEAAHKARVAAGMDRRGRIGQKLGKLMSVAATRENATKTNTTSDHVGDGINTSAGEMTPATTMATSTTTSLPGITAPLVFQRSELAAGGYVVREDVGALEKRKTHYGKPSSTILIRFVRDGPPVEVFDDTSNKNVGSGTLRNAFLENIQDLCGQCGVVRSLRYMVLDDGKRAALRARLENEREEVSAASADVETRLAREMIRVLVRFDTVANAFKALEMLQQRHGSNWDVCFFSTQLFDVGALGPAEGESLCCA” the “soluble on expression in E. coli” value was “not soluble”. For “MAHHHHHHMVNRSTRLQRGPLKKKTTAVAARTSSHAEQPCADGPAKTSSPQTNSIKNVEMTVGVHASPAVAVGDTPQGKLRLRRRAKKDRPLVAAKTDMKSTVRNRKRGRARGSQPGRGSTATTIVHDEQRVTRRPAGGNRQRNQHRQLAEKLVAREEHQSRKKAAEKRMETAKAELALFDQVMQIPSFEENPFAAIEGHLNGTMAFLQPQTPDVGRRKLEE”, the “soluble on expression in E. coli” value was “not soluble”. In the case of “MAHHHHHHMVRPEYSSPPEFFYNEEEAKKYVRNSRIRDIQSQMTERAMELLLLPDSPCLLLDIGCGSGISGMTLNELDHFWIGIDISIHMLRLQNEAHLGGDMLLADMGKLMRFQPCIFDGVVSISALQWLCNWDKKDESPVSRISTFFKWLYNCLKRGARAVFQFYPDSPEQIKTLTNFAMKAGFGGGVVVDFPNSAKSKKYYLCLWAGSSLVATMPTALNDEEENIISHERRKFNKKTKKQIKKNKEWILKKKDQRRMKGLDVKRDSKYTGRKRKGRF”, the “soluble on expression in E. coli” value is reported as “not soluble”. In the case of “MAHHHHHHMVSKTRKQRQKKKAGMQAHDGVLPPVVPSVPKSVHLKKTRPNMKGKMKIRLGLESPIDIYNGFEERKGVIWRCPTCAKACRVVGFCVDCASGVKSKSHAGQLSGRASTKKEAAQTRAPKLRIKEKSRVVKLRRKK”, the “soluble on expression in E. coli” value is reported as “soluble”. For “MAHHHHHHMWKAIFGKKVDSIKAIDSIYHLSDNDFRWLQGFPQLKGSDRVQTLASSEGEGSKDDYMEEPVGPVSHRDVLLYTVGIIKGATHPLLRESSLAVTGTHTKEGETFFTLDFR”, the “soluble on expression in E. coli” value was “not soluble”. With “MAHHHHHHMWNGPTYAIARVRWDSVVRTFSACGTSLASPQRRFSSWFEEQPGGGQHNVEDKAVAAFAVNADRLEKGKTIIKKKAHGIPFHISDAEAVDNVCRHHGAAVEIHSVERFLMPFWLTETSAAGTFKADLLQHDRMNITQPHYFLWLEGPRYQFNYPFGEYMPMNQVSASYREPLKVVERCLTGTHVPSMLLSRFELLHEVEKMEHRPTVIPFTMSTVTALSVIERRVNRRVVLDRIDRELRKFHGSFLKSNVSVMSLQMVASSIRPAFLPLFKLTVSTISHSTPVPAFICGATGKVVGPVLHVQRRKRLGLAAAAAVGTLLSLAPLVEPGVATAAALAVVASSGFVQQAVQRARFVREQAHQMAQLKSVGVLNLVADSTGYRWTPEEEEKEEYEYREELRRQARARDAFEQRVKEEAARDRVRAHGTHFDPKNRRRTDLADVDPRGYYELLGLKGKEFSATAKDITKAFREAVRIHHPDVHPEGEAENKKRHMQRIIEAYKILHNPKTKKFYDSGEMSGKSQETS” the “soluble on expression in E. coli” value was “not soluble”.

Reference: the DeepSol protein solubility set
